The results in this text go back to the supplement of paper PMC11246515.

The nature of this data set: total protein half-life in vivo (active degradation + dilution); higher = more stable protein.
Where [1] appears, read: E. coli NCM3722 delta-clpP delta-lon delta-hslV, growth: N-lim chemostat, doubling time 6 h.
Where [2] appears, read: E. coli NCM3722 delta-clpP, growth: N-lim chemostat, doubling time 6 h.
The mark [3] stands for this setting: E. coli NCM3722 delta-hslV, growth: N-lim chemostat, doubling time 6 h.
Where [4] appears, read: E. coli NCM3722 delta-lon, growth: N-lim chemostat, doubling time 6 h.
Where [5] appears, read: wild type E. coli NCM3722, growth: C-lim chemostat, doubling time 3 h.
The mark [6] stands for this setting: wild type E. coli NCM3722, growth: C-lim chemostat, doubling time 6 h.
Where [7] appears, read: wild type E. coli NCM3722, growth: C-lim chemostat, doubling time 12 h.
Setting [8] is: wild type E. coli NCM3722, growth: N-lim chemostat, doubling time 6 h.
The mark [9] stands for this setting: wild type E. coli NCM3722, growth: N-lim chemostat, doubling time 12 h.
[10] abbreviates: wild type E. coli NCM3722, growth: P-lim chemostat, doubling time 6 h.
[11] abbreviates: wild type E. coli NCM3722, growth: P-lim chemostat, doubling time 12 h.
Where [12] appears, read: E. coli NCM3722 delta-smpB, growth: N-lim chemostat, doubling time 6 h.

± gives the standard deviation of the averaged measurements.

Take “MAISSRNTLLAALAFIAFQAQAVNVTVAYQTSAEPAKVAQADNTFAKESGATVDWRKFDSGASIVRALASGDVQIGNLGSSPLAVAASQQVPIEVFLLASKLGNSEALVVKKTISKPEDLIGKRIAVPFISTTHYSLLAALKHWGIKPGQVEIVNLQPPAIIAAWQRGDIDGAYVWAPAVNALEKDGKVLTDSEQVGQWGAPTLDVWVVRKDFAEKHPEVVKAFAKSAIDAQQPYIANPDVWLKQPENISKLARLSGVPEGDVPGLVKGNTYLTPQQQTAELTGPVNKAIIDTAQFLKEQGKVPAVANDYSQYVTSRFVQ”: the “total protein half-life in vivo” value under setting [1] is 4.13 ± 0.43 h; the “total protein half-life in vivo” value under setting [2] stood at 4.56 ± 0.22 h; the “total protein half-life in vivo” value under setting [3] came out at 5.96 ± 0.29 h; the “total protein half-life in vivo” value under setting [4] is 5.56 ± 0.55 h; the “total protein half-life in vivo” value under setting [5] amounted to 2.98 ± 0.11 h; the “total protein half-life in vivo” value under setting [6] came out at 5.75 ± 1.8 h. The “total protein half-life in vivo” value was found to be 13.2 ± 2.6 h under setting [7]; 5.5 ± 0.39 h under setting [8]; 12.4 ± 0.93 h under setting [9]; 6.77 ± 1.1 h under setting [10]; 11 ± 0.14 h under setting [11].

Take “MKKIGVILSGCGVYDGSEIHEAVLTLLAISRSGAQAVCFAPDKQQVDVINHLTGEAMTETRNVLIEAARITRGEIRPLAQADAAELDALIVPGGFGAAKNLSNFASLGSECTVDRELKALAQAMHQAGKPLGFMCIAPAMLPKIFDFPLRLTIGTDIDTAEVLEEMGAEHVPCPVDDIVVDEDNKIVTTPAYMLAQNIAEAASGIDKLVSRVLVLAE [P0ABU5]”: the “total protein half-life in vivo” value reads like this: under setting [1], 5.23 ± 0.27 h; under setting [2], 4.46 ± 0.24 h; under setting [3], 4.76 ± 0.49 h; under setting [4], 5.05 ± 0.41 h; under setting [12], 4.5 ± 0.09 h; under setting [6], 6.9 ± 1.3 h. Moreover, the “total protein half-life in vivo” value is, setting by setting: under setting [7], 10.8 ± 0.44 h; under setting [8], 4.79 ± 0.54 h; under setting [9], 7.44 ± 0.33 h; under setting [10], 5.67 ± 0.31 h; under setting [11], 13.4 ± 0.84 h.

Consider “MSAQKPGLHPRNRHHSRYDLATLCQVNPELRQFLTLTPAGEQSVDFANPLAVKALNKALLAHFYAVANWDIPDGFLCPPVPGRADYIHHLADLLAEASGTIPANASILDIGVGANCIYPLIGVHEYGWRFTGSETSSQALSSAQAIISSNPGLNRAIRLRRQKESGAIFNGIIHKNEQYDATLCNPPFHDSAAAARAGSERKRRNLGLNKDDALNFGGQQQELWCEGGEVTFIKKMIEESKGFAKQVMWFTSLVSRGENLPPLYRALTDVGAVKVVKKEMAQGQKQSRFIAWTFMNDEQRRRFVNRQR”, for which the “total protein half-life in vivo” value was found to be 5.5 ± 0.76 h under setting [1]; 4.08 ± 0.18 h under setting [2]; 5.27 ± 1.1 h under setting [3]; 5.31 ± 0.52 h under setting [4]; 4.11 ± 0.72 h under setting [12]; 2.98 ± 0.11 h under setting [5]. Besides, the “total protein half-life in vivo” value runs as follows: under setting [6], 4.83 ± 0.83 h; under setting [7], 13.2 h; under setting [8], 4.81 ± 0.35 h; under setting [9], 7.46 ± 0.98 h; under setting [10], 5.28 ± 0.23 h; under setting [11], 10.5 ± 0.17 h.

With “MIDLRSDTVTRPSRAMLEAMMAAPVGDDVYGDDPTVNALQDYAAELSGKEAAIFLPTGTQANLVALLSHCERGEEYIVGQAAHNYLFEAGGAAVLGSIQPQPIDAAADGTLPLDKVAMKIKPDDIHFARTKLLSLENTHNGKVLPREYLKEAWEFTRERNLALHVDGARIFNAVVAYGCELKEITQYCDSFTICLSKGLGTPVGSLLVGNRDYIKRAIRWRKMTGGGMRQSGILAAAGIYALKNNVARLQEDHDNAAWMAEQLREAGADVMRQDTNMLFVRVGEENAAALGEYMKARNVLINASPIVRLVTHLDVSREQLAEVAAHWRAFLAR”, the “total protein half-life in vivo” value was found to be 5.25 ± 0.99 h under setting [1]; 4.88 ± 0.86 h under setting [3]; 5.53 ± 0.73 h under setting [4]; 4.18 ± 0.28 h under setting [12]; 3.162 ± 0.023 h under setting [5]; 5.88 ± 0.24 h under setting [6]. Moreover, the “total protein half-life in vivo” value is, setting by setting: under setting [7], 10.8 ± 0.43 h; under setting [8], 4.39 ± 0.4 h; under setting [9], 6.44 ± 0.27 h; under setting [10], 5.87 ± 0.12 h; under setting [11], 11.2 ± 1.5 h.

On to “MKQGLQLRLSQQLAMTPQLQQAIRLLQLSTLELQQELQQALESNPLLEQIDTHEEIDTRETQDSETLDTADALEQKEMPEELPLDASWDTIYTAGTPSGTSGDYIDDELPVYQGETTQTLQDYLMWQVELTPFSDTDRAIATSIVDAVDETGYLTVPLEDILESIGDEEIDIDEVEAVLKRIQRFDPVGVAAKDLRDCLLIQLSQFDKTTPWLEEARLIISDHLDLLANHDFRTLMRVTRLKEDVLKEAVNLIQSLDPRPGQSIQTGEPEYVIPDVLVRKHNGHWTVELNSDSIPRLQINQHYASMCNNARNDGDSQFIRSNLQDAKWLIKSLESRNDTLLRVSRCIVEQQQAFFEQGEEYMKPMVLADIAQAVEMHESTISRVTTQKYLHSPRGIFELKYFFSSHVNTEGGGEASSTAIRALVKKLIAAENPAKPLSDSKLTSLLSEQGIMVARRTVAKYRESLSIPPSNQRKQLV”, for which the “total protein half-life in vivo” value under setting [1] was determined as 5.34 ± 0.089 h; the “total protein half-life in vivo” value under setting [2] came out at 4.45 ± 0.42 h; the “total protein half-life in vivo” value under setting [3] was determined as 3.48 ± 0.12 h; the “total protein half-life in vivo” value under setting [4] came to 4.78 ± 0.64 h; the “total protein half-life in vivo” value under setting [12] is 3.657 ± 0.022 h; the “total protein half-life in vivo” value under setting [5] is 2.57 ± 0.1 h. The “total protein half-life in vivo” value is, setting by setting: under setting [6], 4.75 ± 0.098 h; under setting [7], 7.27 ± 1.6 h; under setting [8], 3.94 ± 0.43 h; under setting [9], 5.68 ± 0.088 h; under setting [10], 3.61 ± 0.56 h; under setting [11], 6.22 ± 0.58 h.

Consider “MMKNILAIQSHVVYGHAGNSAAEFPMRRLGANVWPLNTVQFSNHTQYGKWTGCVMPPSHLTEIVQGIAAIDKLHTCDAVLSGYLGSAEQGEHILGIVRQVKAANPQAKYFCDPVMGHPEKGCIVAPGVAEFHVRHGLPASDIIAPNLVELEILCEHAVNNVEEAVLAARELIAQGPQIVLVKHLARAGYSRDRFEMLLVTADEAWHISRPLVDFGMRQPVGVGDVTSGLLLVKLLQGATLQEALEHVTAAVYEIMVTTKAMQEYELQVVAAQDRIAKPEHYFSATKL”, for which the “total protein half-life in vivo” value by setting is: under setting [3], 2.01 ± 0.45 h; under setting [4], 1.63 ± 0.039 h; under setting [12], 1.73 h; under setting [5], 2.89 ± 0.033 h; under setting [6], 5 ± 1.8 h; under setting [7], 5.86 ± 0.53 h. Further, the “total protein half-life in vivo” value amounted to 1.832 ± 0.0067 h under setting [8], 2.45 h under setting [9], 4.49 ± 0.085 h under setting [10] and 8.09 ± 0.6 h under setting [11].
